# T1: cynomolgus IL-18Rα on CHO-K1 cells (cynomolgus, UniProt A0A2K5V3J9 19-540)
# T1 construct: whole, on cells; also called CHO CyIL-18Rα
# T1 sequence: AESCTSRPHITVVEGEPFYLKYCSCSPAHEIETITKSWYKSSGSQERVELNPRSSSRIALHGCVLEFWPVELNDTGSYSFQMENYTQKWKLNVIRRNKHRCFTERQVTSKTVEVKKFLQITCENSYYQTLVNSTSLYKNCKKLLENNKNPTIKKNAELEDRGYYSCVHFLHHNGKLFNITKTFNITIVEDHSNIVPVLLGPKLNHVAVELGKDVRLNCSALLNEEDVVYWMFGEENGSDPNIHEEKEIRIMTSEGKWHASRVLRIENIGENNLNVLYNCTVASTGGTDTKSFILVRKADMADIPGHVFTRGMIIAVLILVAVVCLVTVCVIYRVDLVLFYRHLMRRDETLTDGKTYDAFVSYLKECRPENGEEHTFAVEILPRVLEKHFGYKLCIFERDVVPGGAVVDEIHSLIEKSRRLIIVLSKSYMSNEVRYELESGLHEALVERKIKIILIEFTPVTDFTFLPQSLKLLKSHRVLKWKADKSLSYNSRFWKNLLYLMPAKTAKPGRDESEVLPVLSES
# T2: cynomolgus IL-18Rα/IL-18Rβ on transfected cells (cynomolgus, UniProt A0A2K5V3J9 19-540; A0A7N9D6S0 20-598)
# T2 construct: whole, on cells; also called CHO CyIL-18Rα + β
# T2 sequence 1: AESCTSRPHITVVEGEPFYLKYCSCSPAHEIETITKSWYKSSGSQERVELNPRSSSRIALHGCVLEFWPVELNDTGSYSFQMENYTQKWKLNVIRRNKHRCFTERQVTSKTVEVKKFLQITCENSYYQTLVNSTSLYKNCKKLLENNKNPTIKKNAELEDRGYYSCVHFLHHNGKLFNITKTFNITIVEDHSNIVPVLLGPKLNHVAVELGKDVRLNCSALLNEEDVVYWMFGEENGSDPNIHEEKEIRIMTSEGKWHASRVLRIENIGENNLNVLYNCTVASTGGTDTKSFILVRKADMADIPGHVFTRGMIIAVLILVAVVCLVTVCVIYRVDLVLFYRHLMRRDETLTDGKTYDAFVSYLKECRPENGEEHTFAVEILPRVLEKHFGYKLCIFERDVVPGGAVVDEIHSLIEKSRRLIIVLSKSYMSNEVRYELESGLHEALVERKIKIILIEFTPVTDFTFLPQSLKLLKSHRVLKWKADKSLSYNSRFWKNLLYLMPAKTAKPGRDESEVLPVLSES
# T2 sequence 2: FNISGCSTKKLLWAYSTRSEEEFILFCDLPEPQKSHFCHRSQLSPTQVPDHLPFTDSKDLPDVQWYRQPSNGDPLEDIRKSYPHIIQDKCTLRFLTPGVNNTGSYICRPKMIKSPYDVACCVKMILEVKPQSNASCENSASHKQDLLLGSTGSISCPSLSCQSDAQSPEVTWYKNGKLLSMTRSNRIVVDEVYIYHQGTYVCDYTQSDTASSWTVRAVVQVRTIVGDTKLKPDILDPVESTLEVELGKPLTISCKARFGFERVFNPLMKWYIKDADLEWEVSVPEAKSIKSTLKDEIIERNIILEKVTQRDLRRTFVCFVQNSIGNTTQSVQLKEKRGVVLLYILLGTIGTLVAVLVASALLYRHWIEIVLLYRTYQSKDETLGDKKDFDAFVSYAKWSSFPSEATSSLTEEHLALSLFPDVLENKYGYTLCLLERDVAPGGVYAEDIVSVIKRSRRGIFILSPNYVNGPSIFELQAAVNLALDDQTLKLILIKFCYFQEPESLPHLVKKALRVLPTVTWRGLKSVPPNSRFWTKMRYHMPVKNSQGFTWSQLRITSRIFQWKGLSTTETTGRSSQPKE
# Columns and labels:
# [1] = biological target: T1, cynomolgus IL-18Rα on CHO-K1 cells; assay: cell ELISA on CHO-K1 cells expressing cynomolgus IL-18Rα
# Experimental: (§1) The recombinant cell lines CHO-K1 expressing cynomolgus IL-18Rα or cynomolgus IL-18Rα+β were stained with the Mab_IL-18R antibodies in a cell ELISA. Controls are CHO-K1 untransfected cells. Cells were grown in F-12 medium (GIBCO) with Glutamax-1 (GIBCO Cat. No. 31331-028)+10% FCS (PAN Cat. No. 2802-P920707). For cultivation of the recominant cell lines 250 μg/ml G418 (Geneticin, GIBCO, Cat. No. 10131-019) was added. As control antibody anti hIL-18Ralpha Antibody Mab840 (Mouse monoclonal IgG1 from R&D Systems, Cat. MAB 840) and as detection antibody goat anti-mouse IgG (H+L)-HRP conjugate (BioRad) was added. For running the assay, on day 1 2×10⁴ CHO_CynoIL-18Rα, CHO_CynoIL-18Rα+β or untransfected CHO cells in 50 μl F-12/well were seeded in a 96-well plate and incubated overnight at 37° C. On day 2, 50 μl supernatant or (2×) purified antibody diluted in medium or 50 μl Hybridoma supernatant were added and incubated for 2 h at 4° C. Supernatant was aspirated and 100 μl/well Glutaraldehyde fixing solution (25% stock solution Grade EM; final concentration=0.05% in PBS) was added and incubated for 10 minutes at room temperature. For washing 2 times 200 μl PBS/well/wash was added and removed. 50 μl of ELISA detection-antibody diluted in ELISA blocking reagent (ELISA blocking stock reagent diluted 1:10 in PBS) was added. […] The plates were measured at 450 nm-620 nm using an ELISA reader (TECAN).
# [2] = biological target: T2, cynomolgus IL-18Rα/IL-18Rβ on …; assay: cell ELISA on CHO-K1 cells expressing cynomolgus IL-18Rα+β
# Experimental: as §1
binder,measurement,setting,value
"Mab 1G12 (antibody, V domains shown, Monoclonal antibody from immunized NMRI mice; detected with anti-mouse IgG1-PE / anti-mouse IgG; also called F20.1G12; monoclonal antibody 1G12) VH: QVQLQQPGAELVKPGASVRMSCKTSDYTFTSNWMHWVKQRPGQGLEWIGTIDPSDSYTYYNQKFKGRATLTVDTSSSTAYMQLSSLTSEDSAVYYCTTSGDYDADRYFDVWGAGTTVTVSS VL: DIVLTQSPASLGVSLGQRATISCRASKSVSTSGDSYMHWYQQKPGQSPKLLIYLASNLESGVPARFSGSGSGTDFTLNIHPVEEEDAATYYCQQSRELPLSFGAGTKLELK",EC50,[1],0.0186 µg/mL
same,EC50,[2],0.015 µg/mL
